Data from patent US20260167728A1 (published 2026).
Numbering of substitutions follows the chain as printed.

Columns and labels:
[1] = target: T1, human CD3 (human, UniProt P07766 23-126); experiment: SPR Biacore 37 C
[2] = target: T2, cynomolgus monkey CD3 (cynomolgus monkey, UniProt Q95LI5 22-117); experiment: SPR Biacore 37 C
T2 construct: also called Cyno CD3
T2 sequence: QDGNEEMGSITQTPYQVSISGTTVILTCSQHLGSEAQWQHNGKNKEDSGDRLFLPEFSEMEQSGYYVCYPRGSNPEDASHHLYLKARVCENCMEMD

[3] = target: T3, cynomolgus monkey EGFR (cynomolgus monkey, UniProt A0A2K5WK39 25-645); experiment: SPR Biacore 37 C
T3 construct: also called Cyno EGFR

[4] = target: T4, human EGFR (human, UniProt P00533 25-645, limits assumed); experiment: SPR Biacore 37 C
T4 construct: on HT-29 cells in the cytotoxicity assay; also called epidermal growth factor receptor

[5] = target: T1, human CD3; experiment: method not stated
[6] = target: T4, human EGFR; experiment: BLI, room temperature
Procedure: Each construct was expressed in small-scale and purified. Thermal stability was determined by Differential Scanning Fluorimetry. Melting temperature (Tₘ) determined by Differential Scanning Fluorimetry experiments described herein were performed either in duplicate or triplicate using GloMelt™ dye and QuantStudio5™. GloMelt™ dye undergoes fluorescence enhancement upon binding to hydrophobic regions of denatured proteins. Therefore, the dye can be used to detect protein unfolding or measure thermal stability. GloMelt™ dye is optimized for detection in the SYBR® Green channel of qPCR instruments. The Differential Scanning Fluorimetry experiments were performed in 96-well plates with 10 μg protein/reaction (equal to 0.5 mg/mL final protein concentration), reaction buffer, and GloMelt™ 10× dye according to manufacturer's instructions. Fluorescence of 96-well plates was read and melt curve plots were generated in the QuantStudio5™ qPCR system. Binding affinity was analyzed with bio-layer interferometry at room temperature with human EGFR as the antigen.

[7] = target: T5, huCD3e-mFc (human, UniProt P07766 23-126); experiment: Pool 3 screen
T5 construct: not shown: mFc, not described
T5 sequence (P07766 23-126): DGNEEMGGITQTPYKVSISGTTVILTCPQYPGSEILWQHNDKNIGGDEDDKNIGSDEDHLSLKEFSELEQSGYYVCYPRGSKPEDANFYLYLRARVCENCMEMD

T1 sequence (P07766 23-126 limits assumed): as the sequence (P07766 23-126) above

B1: AMX-525 (1x-N) (bispecific antibody)
chain: ASSATPESGPGTSTEPSEGSAPGTSESATPESGPGSGPGTSESATPGTSESATPESGPGSEPATSGSETPGTSESATPESGPGTSTEPSEGSAPGSPAGSPTSTEEGTSESATPESGPGSEPATSGSETPGTSESATPESGPGSPAGSPTSTEEGSPAGSPTSTEEGTSTEPSEGSAPGTSESATPESGPGTSESATPESGPGTSESATPESGPGSEPATSGSETPGSEPATSGSETPGSPAGSPTSTEEGTSTEPSEGSAPGTSTEPSEGSAPGSEPATSGSETPGTSESATPEAGRSASHTPAGLTGPGTSESATPESDIQMTQSPSSLSASVGDRVTITCQASQDISNYLNWYQQKPGKAPKLLIYDASNLETGVPSRFSGSGSGTDFTFTISSLQPEDIATYYCQHFDHLPLAFGQGTKVEIKSESATPESGPGTSPGATPESGPGTSESATPQVQLQESGPGLVKPSETLSLTCTVSGGSVSSGDYYWTWIRQPPGKGLEWIGHIYYSGNTNYNPSLKSRVTISVDTSKNQFSLKLSSVTAADTAVYYCARDRVTGAFDIWGQGTLVTVSSGGGGSELVVTQEPSLTVSPGGTVTLTCRSSNGAVTSSNYANWVQQKPGQAPRGLIGGTNKRAPGTPARFSGSLLEGKAALTLSGVQPEDEAVYYCALWYPNLWVFGGGTKLTVLSESATPESGPGTSPGATPESGPGTSESATPEVQLVESGGGIVQPGGSLRLSCAASGFTFSTYAMNWVRQAPGKGLEWVGRIRTKRNDYATYYADSVKGRFTISRDDSKNTLYLQMNSLKTEDTAVYYCVRHENFGNSYVSWFAHWGQGTLVTVSSGTATPESGPG
notes: Singly masked metabolite; that the N-terminal mask is the one kept is read from the label only; not shown: remnant of cleaved RSR-3213
**Q.** Which Kd [1] does the source give for B1 here?
**A.** The Kd was 36 nM.

**Q.** And the Kd [2]?
**A.** The Kd was 47 nM.

**Q.** What about the Kd [3] of the same binder?
**A.** The Kd was 0.25 nM.

B2: AMX-525 (uTCE) (bispecific antibody)
chain: GTSESATPESDIQMTQSPSSLSASVGDRVTITCQASQDISNYLNWYQQKPGKAPKLLIYDASNLETGVPSRFSGSGSGTDFTFTISSLQPEDIATYYCQHFDHLPLAFGQGTKVEIKSESATPESGPGTSPGATPESGPGTSESATPQVQLQESGPGLVKPSETLSLTCTVSGGSVSSGDYYWTWIRQPPGKGLEWIGHIYYSGNTNYNPSLKSRVTISVDTSKNQFSLKLSSVTAADTAVYYCARDRVTGAFDIWGQGTLVTVSSGGGGSELVVTQEPSLTVSPGGTVTLTCRSSNGAVTSSNYANWVQQKPGQAPRGLIGGTNKRAPGTPARFSGSLLEGKAALTLSGVQPEDEAVYYCALWYPNLWVFGGGTKLTVLSESATPESGPGTSPGATPESGPGTSESATPEVQLVESGGGIVQPGGSLRLSCAASGFTFSTYAMNWVRQAPGKGLEWVGRIRTKRNDYATYYADSVKGRFTISRDDSKNTLYLQMNSLKTEDTAVYYCVRHENFGNSYVSWFAHWGQGTLVTVSSGTATPESGPG
notes: Fully unmasked metabolite; also called unmasked AMX-525; not shown: remnant of cleaved RSR-3213
**Q.** How did the Kd [4] turn out when B2 was run?
**A.** The Kd was 0.034 nM.

**Q.** What about the koff [4] of the same binder?
**A.** The koff was 0.00023 s⁻¹.

**Q.** And the kon [4]?
**A.** The kon was 6.45e+06 M⁻¹ s⁻¹.

**Q.** What about the Kd [1] of the same binder?
**A.** The Kd was 29.2 nM.

**Q.** And the koff [1]?
**A.** The koff was 0.128 s⁻¹.

**Q.** What about the kon [1] of the same binder?
**A.** The kon was 4.4e+06 M⁻¹ s⁻¹.

**Q.** What about the Kd [2] of the same binder?
**A.** The Kd was 28 nM.

**Q.** What about the koff [2] of the same binder?
**A.** The koff was 0.14 s⁻¹.

**Q.** What about the kon [2] of the same binder?
**A.** The kon was 5e+06 M⁻¹ s⁻¹.

**Q.** What about the Kd [3] of the same binder?
**A.** Its Kd is 0.042 nM.

**Q.** And the koff [3]?
**A.** Its koff is 0.00017 s⁻¹.

**Q.** What about the kon [3] of the same binder?
**A.** The kon was 4.1e+06 M⁻¹ s⁻¹.

B3: AC2909 (EGFR.61/CD3.23 paTCE) (bispecific antibody)
scFv 1: EIVLTQSPGTLSLSPGERATLSCQASQDISNYLNWYQQKPGQAPRLLIYDASNLETGIPDRFSGSGSGTDFTLTISRLEPEDFAVYYCQHFDHLPLAFGQGTKVEIKGATPPETGAETESPGETTGGSAESEPPGEGQVQLQESGPGLVKPSETLSLTCTVSGGSVSSGDYYWTWIRQPPGKGLEWIGHIYYSGNTNYNPSLKSRVTISVDTSKNQFSLKLSSVTAADTAVYYCARDRVTGAFDIWGQGTLVTVSS
scFv 2: ELVVTQEPSLTVSPGGTVTLTCRSSNGAVTSSNYANWVQQKPGQAPRGLIGGTNKRAPGTPARFSGSLLGGKAALTLSGVQPEDEAVYYCALWYPNLWVFGGGTKLTVLGATPPETGAETESPGETTGGSAESEPPGEGEVQLLESGGGIVQPGGSLKLSCAASGFTFNTYAMNWVRQAPGKGLEWVARIRSKYNNYATYYADSVKDRFTISRDDSKNTVYLQMNNLKTEDTAVYYCVRHENFGNSYVSWFAHWGQGTLVTVSS
notes: EGFR library format (remarks)
**Q.** B3 was tested. Which Kd [5] did it give?
**A.** Its Kd is roughly 203 nM.

**Q.** And the Kd [6]?
**A.** Its Kd is 2.4 nM.

B4: AC2885 (EGFR.37/CD3.23 paTCE) (bispecific antibody)
scFv 1: DIQMTQSPSSLSASVGDRVTITCQASQDISNYLNWYQQKPGKAPKLLIYDASNLETGVPSRFSGSGSGTDFTFTISSLQPEDIATYYCQHFDHLPLAFGQGTKVEIKGATPPETGAETESPGETTGGSAESEPPGEGQVQLQESGPGLVKPSETLSLTCTVSGGSVSSGDYYWTWIRQPPGKGLEWIGHIYYSGNTNYNPSLKSRVTISVDTSKNQFSLKLSSVTAADTAVYYCARDRVTGAFDIWGQGTLVTVSS
scFv 2: B3 scFv 2
notes: EGFR library format (remarks)
**Q.** For B4, which Kd [7] is on record?
**A.** Its Kd is 15.4 nM.

**Q.** What about the Kd [5] of the same binder?
**A.** Its Kd is 203 nM.

**Q.** What about the Kd [6] of the same binder?
**A.** Its Kd is 2.3 nM.

B5: AC2921 (EGFR.73/CD3.23 paTCE) (bispecific antibody)
scFv 1: B3 scFv 1 with G9A, D60A, R77S
scFv 2: B3 scFv 2
notes: EGFR library format (remarks)
**Q.** Which results are given for B5?
**A.** Kd [5]: ~203 nM; Kd [6]: 2.45 nM

B6: AC2897 (EGFR.49/CD3.23 paTCE) (bispecific antibody)
scFv 1: B4 scFv 1 with F73L, I83F
scFv 2: B3 scFv 2
notes: EGFR library format (remarks)
**Q.** B6 was tested. Which Kd [5] did it give?
**A.** The Kd was roughly 203 nM.

**Q.** And the Kd [6]?
**A.** The Kd was 7.2 nM.

B7: AMX-525 (bispecific antibody)
chain: ASSATPESGPGTSTEPSEGSAPGTSESATPESGPGSGPGTSESATPGTSESATPESGPGSEPATSGSETPGTSESATPESGPGTSTEPSEGSAPGSPAGSPTSTEEGTSESATPESGPGSEPATSGSETPGTSESATPESGPGSPAGSPTSTEEGSPAGSPTSTEEGTSTEPSEGSAPGTSESATPESGPGTSESATPESGPGTSESATPESGPGSEPATSGSETPGSEPATSGSETPGSPAGSPTSTEEGTSTEPSEGSAPGTSTEPSEGSAPGSEPATSGSETPGTSESATPEAGRSASHTPAGLTGPGTSESATPESDIQMTQSPSSLSASVGDRVTITCQASQDISNYLNWYQQKPGKAPKLLIYDASNLETGVPSRFSGSGSGTDFTFTISSLQPEDIATYYCQHFDHLPLAFGQGTKVEIKSESATPESGPGTSPGATPESGPGTSESATPQVQLQESGPGLVKPSETLSLTCTVSGGSVSSGDYYWTWIRQPPGKGLEWIGHIYYSGNTNYNPSLKSRVTISVDTSKNQFSLKLSSVTAADTAVYYCARDRVTGAFDIWGQGTLVTVSSGGGGSELVVTQEPSLTVSPGGTVTLTCRSSNGAVTSSNYANWVQQKPGQAPRGLIGGTNKRAPGTPARFSGSLLEGKAALTLSGVQPEDEAVYYCALWYPNLWVFGGGTKLTVLSESATPESGPGTSPGATPESGPGTSESATPEVQLVESGGGIVQPGGSLRLSCAASGFTFSTYAMNWVRQAPGKGLEWVGRIRTKRNDYATYYADSVKGRFTISRDDSKNTLYLQMNSLKTEDTAVYYCVRHENFGNSYVSWFAHWGQGTLVTVSSGTATPESGPGEAGRSASHTPAGLTGPATPESGPGTSESATPESGPGSPAGSPTSTEEGTSESATPESGPGSEPATSGSETPGTSESATPESGPGTSTEPSEGSAPGTSTEPSEGSAPGTSTEPSEGSAPGTSTEPSEGSAPGTSTEPSEGSAPGTSTEPSEGSAPGSPAGSPTSTEEGTSTEPSEGSAPGTSESATPESGPGSEPATSGSETPGTSESATPESGPGSEPATSGSETPGTSESATPESGPGTSTEPSEGSAPGTSESATPESGPGSPAGSPTSTEEGSPAGSPTSTEEGSPAGSPTSTEEGTSESATPESGPGTSTEPSEGSAPGTSESATPESGPGSEPATSGSETPGTSESATPESGPGSEPATSGSETPGTSESATPESGPGTSTEPSEGSAPGSPAGSPTSTEEGTSESATPESGPGSEPATSGSETPGTSESATPESGPGSPAGSPTSTEEGSPAGSPTSTEEGTSTEPSEGSAPGTSESATPESGPGTSESATPESGPGTSPSATPESGPGSEPATSGSETPGSEPATSGSETPGSPAGSPTSTEEGTSTEPSEGSAPGTSTEPSEGSAPGSEPATSGSETPGTSESAGEPEA
notes: Fully masked paTCE; also called AC4230; EGFR.37/CD3.318 paTCE
**Q.** For B7, which Kd [4] is on record?
**A.** Its Kd is 0.736 nM.

**Q.** What about the koff [4] of the same binder?
**A.** The koff was 0.00077 s⁻¹.

**Q.** What about the kon [4] of the same binder?
**A.** The kon was 1.04e+06 M⁻¹ s⁻¹.

**Q.** And the Kd [1]?
**A.** The Kd was 57 nM.

**Q.** What about the koff [1] of the same binder?
**A.** The koff was 0.18 s⁻¹.

**Q.** And the kon [1]?
**A.** The kon was 3.1e+06 M⁻¹ s⁻¹.

**Q.** What about the Kd [2] of the same binder?
**A.** The Kd was 167 nM.

**Q.** And the koff [2]?
**A.** Its koff is 0.18 s⁻¹.

**Q.** What about the kon [2] of the same binder?
**A.** Its kon is 1.1e+06 M⁻¹ s⁻¹.

**Q.** And the Kd [3]?
**A.** Its Kd is 1.05 nM.

**Q.** What about the koff [3] of the same binder?
**A.** The koff was 0.001 s⁻¹.

**Q.** What about the kon [3] of the same binder?
**A.** The kon was 910000 M⁻¹ s⁻¹.
